These results are taken from US20260274981A1 (VIB VZW, published 2026).

The koff is the rate constant with which the complex falls apart. Usually kon stands for a measure of how fast the partners come together. One may read the Kd as the free concentration of one partner at which half of the binding sites on the other are occupied at equilibrium, for simple one-to-one binding. Usually EC50 (read off the curve) stands for the concentration at which the effect is half-maximal. Read a low EC50 (read off the curve) as an effect from little substance.

The target of assay [1] is T1, recombinant human TfR (2474-TR, R&D Systems), biotinylated (human, UniProt P02786 89-760, biotinylated with EZ-Link NHS-PEG4-Biotinylation Kit).
T1 construct: Bought protein; also called immobilized recombinant human TfR; biotinylated human TfR
The experiment in a line: SPR (Biacore T200), biotinylated human TfR captured on an SA chip as ligand, VHH as analyte, single cycle kinetics, 1:1 binding model. The source says:
(§1) Phage libraries generated after 4 biweekly immunizations of two different camelids, underwent two rounds of pannings on CHO cell lines overexpressing either cynomolgus TfR in the first round or human TfR in the second round. Output libraries were screened with flow cytometry to find binders to human TfR overexpressing cells (FIG. 1A). […] Binding kinetics to recombinant human and cynomolgus TfR were further characterized with Surface Plasmon Resonance (SPR).
(§2) Surface Plasmon Resonance (SPR) was used to measure the interaction between VHHs and human or cynomolgus TfR receptor. Human TfR (2474-TR, R&D Systems) and cynomolgus TfR (90253-C07H, Sino Biological) were biotinylated with the EZ-Link NHS-PEG4-Biotinylation Kit (ThermoFischer Scientific) according to the manufacturer instructions. The binding experiments were performed at 25° C. on a Biacore T200 instrument (Cytiva, Uppsala, Sweden) in HBS-EP+ buffer (10 mM HEPES, 150 mM NaCl, 3 mM EDTA and 0.05% v/v Surfactant P20). Biotinylated human TfR and cynomolgus TfR were captured on a SA sensor chip (Cytiva) at a density of around 250 RU. Increasing concentrations of VHHs were sequentially injected in one single cycle at a flow rate of 30 μl/min. The dissociation was monitored for 20 min. […] A reference flow was used as a control for non-specific binding and refractive index changes. Several buffer blanks were used for double referencing. Binding affinities (KD) and kinetic rate constants (kₒₙ, koff) were derived after fitting the experimental data to the 1:1 binding model with the Biacore T200 Evaluation Software 3.1 using the single cycle kinetic procedure. Each interaction was repeated a least three times.
On the technique in general: SPR reads the build-up and loss of mass on a sensor chip optically.

Assay [2] has as its target T2, mouse TfR overexpressed on CHO cells (mouse, UniProt Q62351 1-763).
T2 construct: whole, on cells
The experiment in a line: flow cytometry on CHO cells overexpressing mouse TfR (CHO-mTfR), VHH detected with anti-FLAG-iFluor647; median Flag-i647 intensity in total GFP cells. The method, then: (§3) Output libraries were screened with flow cytometry to find binders to human TfR overexpressing cells (FIG. 1A). […] Binding kinetics to recombinant human and cynomolgus TfR were further characterized with Surface Plasmon Resonance (SPR).
(§4) Periplasmic extracts diluted 1:10 in PBS 2% FBS, or a dilution range of different VHH or bispecific antibody concentrations prepared in PBS 2% FBS, were incubated with 0.1 million CHO cells overexpressing either the human, cynomolgus or mouse TfR for 30 min at 4° C. As control for background binding, periplasmic extracts, VHHs or bispecific antibodies were also incubated with 0.1 million CHO cells overexpressing GFP. Binding of VHHs was next resolved by a second step 30 min incubation at 4° C. with an anti-FLAG-iFluor647 antibody (A01811, Genscript) diluted 1:500 for screening and 1:250 for validation assays, or with anti-human IgG Fc-Alexa Fluor647 antibody (410714, BioLegend) diluted 1:200. […] Cells were fixed with 4% paraformaldehyde before being analyzed. Flp-In™-CHO™ cells used as unstained control and single stain controls were used to determine the cut-off point between background fluorescence and positive populations. […] The data was acquired with an Attune Nxt flow cytometer (Invitrogen) and analyzed by FCS Express 7 Research Edition.
(In flow cytometry, cells or beads pass a laser one at a time.)

Assay [3] deals with T3, recombinant cynomolgus TfR (90253-C07H, Sino Biological), biotinylated (cynomolgus monkey, UniProt Q5RDH6 89-760 (Pongo abelii entry), biotinylated with EZ-Link NHS-PEG4-Biotinylation Kit).
T3 construct: Bought protein; also called immobilized recombinant cynomolgus TfR
T3 chain: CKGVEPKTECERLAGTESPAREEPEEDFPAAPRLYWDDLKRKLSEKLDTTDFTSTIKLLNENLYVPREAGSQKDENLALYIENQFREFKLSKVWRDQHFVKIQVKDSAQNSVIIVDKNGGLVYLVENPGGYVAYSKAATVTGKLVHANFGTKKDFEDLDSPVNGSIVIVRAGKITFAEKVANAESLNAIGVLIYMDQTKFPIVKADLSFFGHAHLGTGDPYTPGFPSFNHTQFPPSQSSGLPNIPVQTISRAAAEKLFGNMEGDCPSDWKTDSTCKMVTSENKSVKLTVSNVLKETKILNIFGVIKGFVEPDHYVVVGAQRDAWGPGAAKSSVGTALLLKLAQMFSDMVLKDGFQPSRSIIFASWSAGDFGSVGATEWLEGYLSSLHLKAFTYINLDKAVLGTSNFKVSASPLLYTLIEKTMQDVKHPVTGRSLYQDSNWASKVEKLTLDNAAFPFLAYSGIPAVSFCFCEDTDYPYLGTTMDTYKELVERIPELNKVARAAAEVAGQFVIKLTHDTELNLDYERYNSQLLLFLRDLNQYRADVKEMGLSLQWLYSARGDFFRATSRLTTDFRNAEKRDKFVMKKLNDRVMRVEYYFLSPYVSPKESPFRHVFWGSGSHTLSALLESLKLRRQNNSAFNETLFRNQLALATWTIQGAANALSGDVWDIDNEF
The experiment in a line: SPR (Biacore T200), biotinylated cynomolgus TfR captured on an SA chip as ligand, VHH as analyte, single cycle kinetics, 1:1 binding model.
Description: as §1, §2

Assay [4] addresses T1, recombinant human TfR (2474-TR, R&D …). The assay is described as follows: SPR (Biacore T200), biotinylated human TfR captured on SA chip, VHH as analyte, single cycle kinetics.
Description: as §1
as §2, with “Binding affinities (KD) and kinetic rate constants (kₒₙ, koff) were derived after fitting the experimental data to the 1:1 binding model with the Biacore T200 Evaluation Software 3.1 using the single cycle kinetic procedure. Each interaction was repeated a least three times.” left out

The target in assay [5] is T4, human TfR overexpressed on CHO cells (human, UniProt P02786 1-760).
T4 construct: construct is TfR followed by an HA tag and IRES-GFP; also called hTfR; human transferrin receptor
The experiment in a line: flow cytometry on CHO cells overexpressing human TfR (CHO-hTfR), VHH detected with anti-FLAG-iFluor647; median Flag-i647 intensity in total GFP cells. The method, then:
as §3, §4

T2 sequence (Q62351 whole entry): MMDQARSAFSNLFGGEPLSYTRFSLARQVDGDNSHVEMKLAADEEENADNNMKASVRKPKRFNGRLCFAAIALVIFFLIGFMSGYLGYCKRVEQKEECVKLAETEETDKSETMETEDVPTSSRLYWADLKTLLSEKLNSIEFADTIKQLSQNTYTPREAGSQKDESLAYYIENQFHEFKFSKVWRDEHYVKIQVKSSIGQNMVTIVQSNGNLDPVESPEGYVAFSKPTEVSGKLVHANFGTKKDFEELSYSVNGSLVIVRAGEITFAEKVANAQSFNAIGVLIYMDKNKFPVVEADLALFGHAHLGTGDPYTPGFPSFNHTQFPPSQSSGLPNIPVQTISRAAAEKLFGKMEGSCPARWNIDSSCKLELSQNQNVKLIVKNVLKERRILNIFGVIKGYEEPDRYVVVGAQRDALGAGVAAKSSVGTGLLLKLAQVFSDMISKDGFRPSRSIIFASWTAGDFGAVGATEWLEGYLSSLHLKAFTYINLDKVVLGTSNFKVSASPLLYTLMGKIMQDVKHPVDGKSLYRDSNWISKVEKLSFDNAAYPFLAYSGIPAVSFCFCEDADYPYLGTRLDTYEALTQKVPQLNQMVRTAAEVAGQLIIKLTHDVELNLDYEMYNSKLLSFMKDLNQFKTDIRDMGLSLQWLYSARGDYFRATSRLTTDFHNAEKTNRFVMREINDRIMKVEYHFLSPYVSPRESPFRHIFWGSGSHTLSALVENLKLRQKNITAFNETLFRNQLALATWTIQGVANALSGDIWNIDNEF

B1: BBB00533 (VHH)
VHH: QVQLQESGGGSVQPGGSLRLSCTASGRTFNYAMGWFRQAPGKNREFVATIDWKDGSSYYLDSVRGRFTIERDDAKNTVYLQMNSLKPEDAAVYTCAVGDGDYCSTYTCAAEVEYDYWGQGTQVTVSS
notes: Lead VHH expressed in E. coli TG1 and purified by IMAC; detected with anti-FLAG antibody in flow cytometry; also called BBB00533 VHH; not shown: C-terminal 3xFlag/6xHis tag from expression vector pBDS119
With B1, the koff in assay [1] is 0.00592 s⁻¹; in assay [3], 0.0118 s⁻¹. Further, the results for the association rate constant (kon) in assay [1] and in assay [3] were 29000 M⁻¹ s⁻¹ and 115000 M⁻¹ s⁻¹, respectively. For the same molecule, in assay [2], the binding result was “no binding (tested: Log10 Conc 3.5 (about 3000 nM))”. Further, the dissociation constant (Kd) in assay [4] was 207 nM. Besides, the “EC50 (read off the curve)” value in assay [5] is around 50 nM.

B2: BBB00515 (VHH)
VHH: QVQLQESGGGLVQAGGSLRLSCAASGSIFSINAMGWYRQAPGKQRELVAVITSGGSTIYADSVKGRFTISRDNAENTVYLQMNSLKPEDTAVYYCNAHVGLKVPTIQELSLGFGSWGQGTQVTVSS
notes: Lead VHH expressed in E. coli TG1 and purified by IMAC; detected with anti-FLAG antibody in flow cytometry; also called BBB00515 VHH; not shown: C-terminal 3xFlag/6xHis tag from expression vector pBDS119
For B2, in assay [1], the koff stood at 0.0137 s⁻¹ and the on-rate constant (kon) was 15000 M⁻¹ s⁻¹. In addition, the binding result in assay [2] is “no binding (tested: Log10 Conc 3.5 (about 3000 nM))”. In assay [3], the off-rate constant (koff) was determined as 0.00942 s⁻¹ and the kon was 149000 M⁻¹ s⁻¹. Besides, the Kd in assay [4] came out at 1180 nM. Further, the “EC50 (read off the curve)” value in assay [5] is around 50 nM.
